According to the supplement of paper PMC12764529:
± gives the half width of the 95% confidence interval.

assay: folding stability dG unfold from trypsin proteolysis; higher = more stable
How it was run: (§1)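 Designed mini-proteins with no cysteine and under 80 residues were kept only if AlphaFold2 dimer inter-PAE was above 15. In a PA-tagged cDNA display construct, they were digested with trypsin and chymotrypsin and then sequenced. K50 was inferred by Bayesian fitting of counts, and unfolding free energy was derived per protease or combined against a sequence-predicted unfolded-state K50 and a shared folded-state K50.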

In order of falling “folding stability dG unfold” value:
1. SAGGSAEFKIEAEVLSKEVNPETGKPVVKVKIKIEKYNPETGKKEEKEIELELSEEELEKLLKELGSAGGSA [r2_357_TrMRF]  3.61 ± 0.23 kcal/mol
2. SAGGSAGGSAGMKPGQKEEVKIPIMGMIPVDGRTFMIRFDITVKAPGAIKIELDIIPGFPSAGGSAGGSAGG [r11_551_TrROS]  3.26 ± 0.16 kcal/mol
3. SAGGMIKIEKEEDGTLRITIVVPEKEEEAEELAEKLKEKLKELGVEEVKIEVVEKDGKVVVEIEVKKSAGGS [r8_113_TrROS_Hall]  2.29 ± 0.1 kcal/mol
4. SAGMKVIIGKNKIYVLVKLPNGEKKLFEIDIENIEKIKKIEIDIGKGYAKIGSKDNIPIYTKIKKVYNVSAG [r5_388_TrMRF]  2.2 ± 0.058 kcal/mol
5. SAGGSMEVVVTFPDGSKEVIPEEPLKKLAEELGIPWDEEDPEAQWEAIARALAEKTGKPVEKVEIASAGGSA [r2_83_TrMRF]  1.97 ± 0.072 kcal/mol
6. SAGGSAMKPDDYVVIKIEIENMSEEEIAKKLADELKKLFPDVEVKVTVEKEEDGRYRVTIEVVLKKSAGGSA [r15_916_TrROS_Hall]  1.83 ± 0.056 kcal/mol
7. SAGMEYLEVKVTIEPKLPEELREKLKGKKVTVTIIVPKEMSEEEKKKLLEELRDLGVKKVEIKSLEELKSAG [r5_60_TrROS_Hall]  1.65 ± 0.085 kcal/mol
8. SAGGSSSSSYTLNYPDKRVNVSVSHPPSGPLNVTITVYDPNGNKTKTITSPVGSLEKAKSLLEKLLSAGGSA [r2_82_JUSTAS]  1.63 ± 0.04 kcal/mol
9. SAGGSAGGSAGMVKSLSELLAENPDLSIEEIKAKLEKEGYKVEVKKEGDTPVVYIKKGKKSAGGSAGGSAGG [r11_707_JUSTAS]  1.43 ± 0.04 kcal/mol
10. SAGGAPLPLPPDVPVTLTFTEVTFSLNESGETGYTVSTTTVPVPVEPVPPVPLPVLVVWPDGSAVALLSAGG [r13_401_JUSTAS]  1.3 ± 0.067 kcal/mol
11. SAGGKMTLKDIEIIEVIEKDGEIEVVLIRNKKTNKVIAIPREDLEKLLSLPEDVEVVRLRIKPGEKLSAGGS [r16_61_TrROS_Hall]  1.3 ± 0.07 kcal/mol
12. SAGSPVLATLRTYDPVAKKWTESVYPVSDPEALIAEVAAELGVEVEVDPATGVATAPLPDGRLVVVTVVSAG [r5_937_JUSTAS]  1.2 ± 0.036 kcal/mol
13. SAGGSMADPGKAKAKVVIGGVEFEFDTTVTVADDPDGRKVLIFTFPDGTPVEIPLEDAEKILEVEGSAGGSA [r2_297_TrMRF]  0.996 ± 0.024 kcal/mol
14. SAGGSAGGSDGVIQIPIKSDDGEEFKIEIPIEQIKKMMKEGRPIKIWLFDNGKMVRPFEIPIDSAGGSAGGS [r12_991_TrROS]  0.428 ± 0.12 kcal/mol
15. SAGGSMPFRPLDVKVTVERLPDGTIRITTTLRQPDSPAAVTTEVKEVPLAELVKKRGRPVTAEDLLSAGGSA [r2_180_JUSTAS]  0.132 ± 0.12 kcal/mol
16. SAGGSAGGSAGGKIIEVKEENGEVYLLVEVDGKKEVIKFPKGAKLEEIKVDVKEVKVLKPSAGGSAGGSAGG [r7_373_TrROS_Hall]  -0.0364 ± 0.065 kcal/mol
17. SAGGSAGGSAGNVTLTRVEVLEGEDDRPLIKATFSFEPGPQVLVFEGDNPDDIEIDVDVGSAGGSAGGSAGG [r17_64_TrMRF]  -0.45 ± 0.096 kcal/mol

assay: folding stability dG unfold from chymotrypsin proteolysis; higher = more stable
How it was run: as §1

In order of falling “folding stability dG unfold” value:
1. SAGGSAGGSAGMKPGQKEEVKIPIMGMIPVDGRTFMIRFDITVKAPGAIKIELDIIPGFPSAGGSAGGSAGG [r11_551_TrROS]  4.73 ± 0.29 kcal/mol
2. SAGGSAMKPDDYVVIKIEIENMSEEEIAKKLADELKKLFPDVEVKVTVEKEEDGRYRVTIEVVLKKSAGGSA [r15_916_TrROS_Hall]  3.34 ± 0.15 kcal/mol
3. SAGGSAEFKIEAEVLSKEVNPETGKPVVKVKIKIEKYNPETGKKEEKEIELELSEEELEKLLKELGSAGGSA [r2_357_TrMRF]  2.93 ± 0.08 kcal/mol
4. SAGMKVIIGKNKIYVLVKLPNGEKKLFEIDIENIEKIKKIEIDIGKGYAKIGSKDNIPIYTKIKKVYNVSAG [r5_388_TrMRF]  2.82 ± 0.11 kcal/mol
5. SAGGMIKIEKEEDGTLRITIVVPEKEEEAEELAEKLKEKLKELGVEEVKIEVVEKDGKVVVEIEVKKSAGGS [r8_113_TrROS_Hall]  2.77 ± 0.16 kcal/mol
6. SAGGSMEVVVTFPDGSKEVIPEEPLKKLAEELGIPWDEEDPEAQWEAIARALAEKTGKPVEKVEIASAGGSA [r2_83_TrMRF]  2.24 ± 0.17 kcal/mol
7. SAGGAPLPLPPDVPVTLTFTEVTFSLNESGETGYTVSTTTVPVPVEPVPPVPLPVLVVWPDGSAVALLSAGG [r13_401_JUSTAS]  2.23 ± 0.051 kcal/mol
8. SAGMEYLEVKVTIEPKLPEELREKLKGKKVTVTIIVPKEMSEEEKKKLLEELRDLGVKKVEIKSLEELKSAG [r5_60_TrROS_Hall]  1.93 ± 0.077 kcal/mol
9. SAGGSMADPGKAKAKVVIGGVEFEFDTTVTVADDPDGRKVLIFTFPDGTPVEIPLEDAEKILEVEGSAGGSA [r2_297_TrMRF]  1.66 ± 0.03 kcal/mol
10. SAGSPVLATLRTYDPVAKKWTESVYPVSDPEALIAEVAAELGVEVEVDPATGVATAPLPDGRLVVVTVVSAG [r5_937_JUSTAS]  1.56 ± 0.014 kcal/mol
11. SAGGKMTLKDIEIIEVIEKDGEIEVVLIRNKKTNKVIAIPREDLEKLLSLPEDVEVVRLRIKPGEKLSAGGS [r16_61_TrROS_Hall]  1.34 ± 0.15 kcal/mol
12. SAGGSSSSSYTLNYPDKRVNVSVSHPPSGPLNVTITVYDPNGNKTKTITSPVGSLEKAKSLLEKLLSAGGSA [r2_82_JUSTAS]  1.28 ± 0.062 kcal/mol
13. SAGGSMPFRPLDVKVTVERLPDGTIRITTTLRQPDSPAAVTTEVKEVPLAELVKKRGRPVTAEDLLSAGGSA [r2_180_JUSTAS]  1.21 ± 0.096 kcal/mol
14. SAGGSAGGSDGVIQIPIKSDDGEEFKIEIPIEQIKKMMKEGRPIKIWLFDNGKMVRPFEIPIDSAGGSAGGS [r12_991_TrROS]  1.06 ± 0.15 kcal/mol
15. SAGGSAGGSAGMVKSLSELLAENPDLSIEEIKAKLEKEGYKVEVKKEGDTPVVYIKKGKKSAGGSAGGSAGG [r11_707_JUSTAS]  0.765 ± 0.14 kcal/mol
16. SAGGSAGGSAGGKIIEVKEENGEVYLLVEVDGKKEVIKFPKGAKLEEIKVDVKEVKVLKPSAGGSAGGSAGG [r7_373_TrROS_Hall]  0.563 ± 0.1 kcal/mol
17. SAGGSAGGSAGNVTLTRVEVLEGEDDRPLIKATFSFEPGPQVLVFEGDNPDDIEIDVDVGSAGGSAGGSAGG [r17_64_TrMRF]  0.0818 ± 0.12 kcal/mol

assay: folding stability dG unfold (combined trypsin and chymotrypsin); higher = more stable
How it was run: as §1

In order of rising “folding stability dG unfold” value:
1. SAGGSAGGSAGNVTLTRVEVLEGEDDRPLIKATFSFEPGPQVLVFEGDNPDDIEIDVDVGSAGGSAGGSAGG [r17_64_TrMRF]  -0.0491 ± 0.13 kcal/mol
2. SAGGSAGGSAGGKIIEVKEENGEVYLLVEVDGKKEVIKFPKGAKLEEIKVDVKEVKVLKPSAGGSAGGSAGG [r7_373_TrROS_Hall]  0.539 ± 0.12 kcal/mol
3. SAGGSAGGSDGVIQIPIKSDDGEEFKIEIPIEQIKKMMKEGRPIKIWLFDNGKMVRPFEIPIDSAGGSAGGS [r12_991_TrROS]  0.735 ± 0.19 kcal/mol
4. SAGGSMPFRPLDVKVTVERLPDGTIRITTTLRQPDSPAAVTTEVKEVPLAELVKKRGRPVTAEDLLSAGGSA [r2_180_JUSTAS]  0.858 ± 0.19 kcal/mol
5. SAGGSAGGSAGMVKSLSELLAENPDLSIEEIKAKLEKEGYKVEVKKEGDTPVVYIKKGKKSAGGSAGGSAGG [r11_707_JUSTAS]  1.12 ± 0.16 kcal/mol
6. SAGGKMTLKDIEIIEVIEKDGEIEVVLIRNKKTNKVIAIPREDLEKLLSLPEDVEVVRLRIKPGEKLSAGGS [r16_61_TrROS_Hall]  1.32 ± 0.18 kcal/mol
7. SAGGSMADPGKAKAKVVIGGVEFEFDTTVTVADDPDGRKVLIFTFPDGTPVEIPLEDAEKILEVEGSAGGSA [r2_297_TrMRF]  1.43 ± 0.067 kcal/mol
8. SAGGSSSSSYTLNYPDKRVNVSVSHPPSGPLNVTITVYDPNGNKTKTITSPVGSLEKAKSLLEKLLSAGGSA [r2_82_JUSTAS]  1.45 ± 0.11 kcal/mol
9. SAGSPVLATLRTYDPVAKKWTESVYPVSDPEALIAEVAAELGVEVEVDPATGVATAPLPDGRLVVVTVVSAG [r5_937_JUSTAS]  1.45 ± 0.051 kcal/mol
10. SAGGAPLPLPPDVPVTLTFTEVTFSLNESGETGYTVSTTTVPVPVEPVPPVPLPVLVVWPDGSAVALLSAGG [r13_401_JUSTAS]  1.89 ± 0.059 kcal/mol
11. SAGMEYLEVKVTIEPKLPEELREKLKGKKVTVTIIVPKEMSEEEKKKLLEELRDLGVKKVEIKSLEELKSAG [r5_60_TrROS_Hall]  1.89 ± 0.11 kcal/mol
12. SAGGSMEVVVTFPDGSKEVIPEEPLKKLAEELGIPWDEEDPEAQWEAIARALAEKTGKPVEKVEIASAGGSA [r2_83_TrMRF]  2.09 ± 0.093 kcal/mol
13. SAGGMIKIEKEEDGTLRITIVVPEKEEEAEELAEKLKEKLKELGVEEVKIEVVEKDGKVVVEIEVKKSAGGS [r8_113_TrROS_Hall]  2.53 ± 0.13 kcal/mol
14. SAGMKVIIGKNKIYVLVKLPNGEKKLFEIDIENIEKIKKIEIDIGKGYAKIGSKDNIPIYTKIKKVYNVSAG [r5_388_TrMRF]  2.6 ± 0.14 kcal/mol
15. SAGGSAMKPDDYVVIKIEIENMSEEEIAKKLADELKKLFPDVEVKVTVEKEEDGRYRVTIEVVLKKSAGGSA [r15_916_TrROS_Hall]  2.83 ± 0.26 kcal/mol
16. SAGGSAEFKIEAEVLSKEVNPETGKPVVKVKIKIEKYNPETGKKEEKEIELELSEEELEKLLKELGSAGGSA [r2_357_TrMRF]  3.13 ± 0.13 kcal/mol
17. SAGGSAGGSAGMKPGQKEEVKIPIMGMIPVDGRTFMIRFDITVKAPGAIKIELDIIPGFPSAGGSAGGSAGG [r11_551_TrROS]  4.23 ± 0.21 kcal/mol
